{"source": "patent US20090305254", "about": "“Method and Apparatus for Assaying Test Substance in Sample” (TECHNO MEDICA CO., LTD., published 2009)", "key": {"[1]": {"target": "T1, bovine serum albumin (BSA) (Bos taurus, UniProt P02769 P02769:25-607)", "T1 sequence (P02769 25-607, one chain of several)": "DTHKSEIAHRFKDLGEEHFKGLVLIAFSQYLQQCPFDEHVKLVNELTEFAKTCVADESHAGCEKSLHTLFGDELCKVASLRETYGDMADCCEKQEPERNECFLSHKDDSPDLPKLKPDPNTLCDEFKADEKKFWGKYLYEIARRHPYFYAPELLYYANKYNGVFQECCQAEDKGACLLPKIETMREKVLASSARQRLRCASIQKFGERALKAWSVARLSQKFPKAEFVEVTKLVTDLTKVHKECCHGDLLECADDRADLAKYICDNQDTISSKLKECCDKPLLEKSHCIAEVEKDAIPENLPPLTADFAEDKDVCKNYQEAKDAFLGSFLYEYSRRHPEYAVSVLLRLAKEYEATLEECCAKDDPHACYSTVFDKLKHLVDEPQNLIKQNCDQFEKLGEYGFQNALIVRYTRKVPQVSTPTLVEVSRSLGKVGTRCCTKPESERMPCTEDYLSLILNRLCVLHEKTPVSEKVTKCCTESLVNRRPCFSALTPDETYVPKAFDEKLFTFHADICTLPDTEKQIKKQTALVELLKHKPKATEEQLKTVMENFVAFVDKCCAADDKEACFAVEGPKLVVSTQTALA", "test": "SPR; control; PBS with 1 mM MgCl2 pH 7.4; also no response current at 1 uM in electrochemical assay", "settings": "label: biotin (SPR); hairpin", "experimental": "Biotinylated CaAp-1 was immobilized on an SPR chip (SA chip), and variations in SPR signal when IgE solutions of various concentrations (100 μL) were fed were observed. Upon measurement of interaction, an Mg2+-containing PBS buffer (138 mM NaCl, 2.7 mM KCl, 8.1 mM NaHPO₄, 1.1 mM KHPO₄, 1 mM MgCl₂, pH 7.4) was used, and the flow rate was set at 20 μL/min. Observed as a control were variations in SPR signal when bovine serum albumin (BSA) solutions of various concentrations were fed.\nTo beads (20 μL; solid amount: 10 μL) with “NEUTRAVIDIN” (trade name) immobilized as a biotin-binding substance thereon, the biotin-modified 14-mer capture oligonucleotide (0.5 nmol) was added. With 100 mM phosphate buffer and 150 mM […] (pH7.2), the total volume was adjusted to 500 μL. The resultant mixture was stirred overnight at 4° C. to immobilize the 14-mer capture oligonucleotide on the beads. […] Using the supernatant (20 μL) and 10 mM MOPS (pH 7.2), which contained CaCl₂ (1 mM) and PQQ (1 μM), as a reaction solution (total volume: 4 mL), a gold electrode as a working electrode and a platinum electrode as an opposing electrode, the response current was measured at an impression potential of +100 mV vs Ag/AgCl while adding glucose to a final concentration of 60 mM. […]"}, "[2]": {"target": "T1, bovine serum albumin (BSA)", "test": "control; PQQGDH-labeled aptamer, electrochemical bead capture assay; no BSA-concentration-dependent current", "settings": "G4 with inserted hairpin (15-nt loop 27-41, 5-bp stem)", "experimental": "Each sample solution (100 μL), which contained thrombin (0 to 10 μg/mL, […]) and the PQQGDH-labeled aptamer (0.1 U, approx. 10 μmol) prepared above in Procedure (2), was added to the DNA-immobilized carrier (10 μL) obtained above in Procedure (1), and the resulting mixture was stirred at room temperature for 15 minutes and then centrifuged. Using the thus-obtained supernatant (20 μL) and 10 mM MOPS (pH 7.2, 4 mL in total), which contained mPMS (1-methoxyphenazine methosulphate) (6 mM), PQQ (1 μM) and CaCl₂ (1 mM), as a reaction solution, a gold electrode as a working electrode and a platinum electrode as an opposing electrode, the response current was measured at an impression potential of +100 mV vs Ag/AgCl while adding glucose to a final concentration of 60 mM. The measurement was conducted at 25° C. With respect to each of sample solutions containing thrombin at 50 to 1,000 μg/mL ([…]), detection was similarly conduced by doubling the amounts of the DNA-immobilized carrier and ap-GDH to be employed.\nA thrombin-concentration-dependent increase in current value was observed up to the level of 10 μg/mL. When BSA was used as a control in place of thrombin, the resultant current value was low, no BSA-concentration-dependent increase in current value was observed (FIG. 4(b)), and the detection limit was 100 ng/mL (2.7 nM) (FIG. 4(a)). […]"}, "thrombin": {"target": "thrombin (UniProt P00734;P00734 P00734:328-363,P00734:364-622)", "test": "EMSA; 10 mM MOPS pH 7.4, room temp; thrombin-bound aptamer does not hybridize FITC 15-mer complementary strand; PQQGDH-labeled aptamer bead assay detection limit 100"}}}
{"binder": "TCACGTTTATCCGTCCCTCCTAGTGGCGTGA (ssDNA)", "note": "[CaAp-1 IgE-binding aptamer]", "values": [{"measurement": "binding result", "setting": "[1]", "value": "no binding"}]}
{"binder": "structure-switching thrombin aptamer with inserted hairpin (22-46 nt) (ssDNA) DNA: CACTGGTAGGTTGGTGTGGTTGGACGACGAATTCATGATCACGTCCTTGGGGCCAGTG", "values": [{"measurement": "binding result", "setting": "[2]", "value": "no binding"}, {"measurement": "binding result", "setting": "thrombin", "value": "binds"}]}
